In one data set the target is Klf4 ZnF1-3 E446D (Mus musculus, UniProt Q60793 396-483, E446D). In words: X-ray crystallography.
Data set [1] deals with T1, Klf4 ZnF1-3 E446P (Mus musculus, UniProt Q60793 396-483, E446P). In words: fluorescence polarization. For orientation: Fluorescence polarisation rises when a labelled molecule tumbles more slowly, as on binding a larger partner.
Data set [2] concerns the target T2, Klf4 ZnF1-3 WT (E446) (Mus musculus, UniProt Q60793 396-483). In words: fluorescence polarization.
Data set [3] has as its target T2, Klf4 ZnF1-3 WT (E446). In words: fluorescence polarization. This is another data set of the same source.
The target in data set [4] is T1, Klf4 ZnF1-3 E446P. In words: fluorescence polarization. The source holds these as a separate data set.
For data set [5], the target named is T1, Klf4 ZnF1-3 E446P. In words: X-ray crystallography.
In data set [6] the target is T2, Klf4 ZnF1-3 WT (E446). In words: X-ray crystallography.
In data set [7] the target is T1, Klf4 ZnF1-3 E446P. In words: X-ray crystallography. This is another data set of the same source.
For data set [8], the target named is T2, Klf4 ZnF1-3 WT (E446). In words: X-ray crystallography. This is another data set of the same source.

The values that follow come from PMC5137437.

Where two headings read alike, the source gives them in different places.

T2 sequence (Q60793 396-483): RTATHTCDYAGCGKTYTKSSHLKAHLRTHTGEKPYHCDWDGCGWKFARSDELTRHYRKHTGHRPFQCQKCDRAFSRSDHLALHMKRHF
T1 sequence (Q60793 396-483 E446P): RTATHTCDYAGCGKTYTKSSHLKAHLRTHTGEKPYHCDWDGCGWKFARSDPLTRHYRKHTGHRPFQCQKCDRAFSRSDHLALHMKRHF
Klf4 ZnF1-3 E446D, sequence (Q60793 396-483 E446D): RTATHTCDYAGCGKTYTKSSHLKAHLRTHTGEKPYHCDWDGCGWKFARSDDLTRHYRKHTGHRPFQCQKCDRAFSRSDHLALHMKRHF

B1: CpG/CpG crystal duplex (dsDNA)
DNA 1: GAGGCGTGGC
DNA 2: GCCACGCCTC
For B1, in the data set with Klf4 ZnF1-3 E446D, the binding result is recorded as “binds”.

B2: 5mCpG hemimethylated FP probe (dsDNA)
DNA 1: GAGGCGTGGC
DNA 2: TTGCCACGCCTC
modifications: 5mC at position 5 of strand 1; strand 2 unmethylated
As usually defined, the Kd is the equilibrium constant for the complex coming apart. Read a high Kd as a looser complex. Consider B2, for which, in the data set with Klf4 ZnF1-3 E446P [1], the Kd is less than 5 nM. For the same molecule, the binding signal in the data set with Klf4 ZnF1-3 WT (E446) [2] is 1.5 fold tighter than P1 with N1.

B3: TpG FP probe (dsDNA)
DNA 1: GAGGTGTGGC
DNA 2: TTGCCACACCTC
In the case of B3, the binding result with Klf4 ZnF1-3 WT (E446) [3] is “binds”.

B4: CpG unmodified FP probe (dsDNA)
DNA 1: GAGGCGTGGC
DNA 2: TTGCCACGCCTC
As to B4, the binding signal with Klf4 ZnF1-3 E446P [4] is ~4 fold tighter than P1 with N1.

B5: 5mCpG/5mCpG crystal duplex (dsDNA)
DNA 1: GAGGCGTGGC
DNA 2: GCCACGCCTC
modifications: 5mC at position 5 of strand 1 and position 5 of strand 2
As to B5, in the data set with Klf4 ZnF1-3 E446P [5], the binding result is “binds”.

B6: TpG/5mCpA crystal duplex (dsDNA)
DNA 1: GAGGTGTGGC
DNA 2: GCCACACCTC
modifications: 5mC at position 5 of strand 2
In the case of B6, the binding result in the data set with Klf4 ZnF1-3 WT (E446) [6] is “binds”.

B7: TpG crystal duplex (E446P complex) (dsDNA)
DNA 1: GAGGTGTGGC
DNA 2: GCCACACCTC
modifications: methylation of the opposite-strand CpA not stated in the material
With B7, the binding result with Klf4 ZnF1-3 E446P [7] is on record as “binds”.

B8: TpG/CpA crystal duplex (dsDNA)
DNA 1: GAGGTGTGGC
DNA 2: GCCACACCTC
In the case of B8, the binding result in the data set with Klf4 ZnF1-3 WT (E446) [8] is reported as “binds”.
